Measured values published in US20100247590A1, “Peptide-Based Systems For Delivery Of Cosmetic Agents” (JOHNSON & JOHNSON, priority 2009, published 2010).

B1: MASGSDPS-Hair2Rnd1-GPEPEPEPEPIPEPPKEAPVVIEKPKPKPKPKPKPPA-Gray3Rnd4-GSGGGGSP-HHHHHH (peptide)
chain: MASGSDPSDRSKLYQSLEHRQPPGAHAQGPEPEPEPEPIPEPPKEAPVVIEKPKPKPKPKPKPPAAHDAKHEHRKQNHTQGSGGGGSPHHHHHH
B2: MASGSDPS-Hair2-GPEPEPEPEPIPEPPKEAPVVIEKPKPKPKPKPKPPA-Gray3-GSGGGGSP-HHHHHH (peptide)
chain: MASGSDPSAQSQLPDKHSGLHERAPQRYGPEPEPEPEPIPEPPKEAPVVIEKPKPKPKPKPKPPAHDHKNQKETHQRHAAGSGGGGSPHHHHHH

Columns and labels:
[1] = Peptide-mediated binding of Co-NTA magnetic beads to gray hair, visual rating on magnet; design: species or system human
Experimental: Approximately 5 mg of 5 mm long hair strands (90% gray, human) were transferred to 2-mL microcentrifuge tubes. Approximately 1 mL of TBST0.1 buffer (25 mM Tris, 150 mM NaCl, pH7.2, with 0.1% TWEEN®-20) or the same buffer including varying concentrations of HC263 peptide was added to the hair.
The mixtures were shaken on a Nutator for one hour at room temperature (˜22° C.). The hairs were washed three times with TBST0.5 buffer (25 mM Tris, 150 mM NaCl, pH 7.2, with 0.5% TWEEN®-20). After washing, the hairs were resuspended in 900 μL Talon buffer (50 mM sodium phosphate, pH 8.0, 300 mM sodium chloride, 0.01% TWEEN®-20). A subset of hair/peptide conjugates were washed additionally one time with 1 mL of 0.25% SLES (Sodium Lauryl Ether Sulfate) for 5 min at room temperature on the Nutator, then washed two times with 1 mL TBST0.1 buffer. Approximately 0.2 mg of TALON™ beads (DYNABEADS® TALONT™, Invitrogen, Catalog#101.01D) were washed twice with TALON™ buffer on the DYNAL® MPC™ magnet and added to each reaction in 100 μL TALON™ buffer. The magnetic beads were coated with Co-NTA, which specifically binds to the six histidine residues incorporated into the peptide (C-terminal his tag). The hair and beads were incubated for 10 minutes with gentle shaking before the tubes were placed on the magnet.
Beads binding to the hair were expected to co-migrate on the sides of the tubes once applied to the magnet. The strength of binding was visually assessed and rated on a scale of 0 (little or no observed binding) to 5 (highest amount of observed binding).
The hair binding assay of Example 3 was used to assess the strength of binding of the test peptides in Table 10.

[2] = HC263-mediated binding of magnetic beads to surfaces, SEM score: yak hair; conditions: surface yak hair, 0.2 μM HC263
Experimental: (§1) Peptide HC263 (SEQ ID NO: 196) was tested for peptide-mediated binding of magnetic beads to various surfaces: human hair, yak hair, wool, cotton, SONTARA® (a nonwoven, spunlaced textile sheet fabric, E.I. duPont de Nemours and Company, Inc., Wilmington, Del.), and cellulose (filter paper). Approximately 5 mg of human hair (90% gray), yak hair, wool, cotton, SONTARA®, or filter paper were added to 2-mL microcentrifuge tubes. Approximately 1 mL of TBST0.1 buffer (25 mM Tris, 150 mM NaCl, pH 7.2, with 0.1% TWEEN®-20) containing 0.2 μM HC263 was added. The mixtures were shaken on a Nutator (BD Diagnostics, Franklin Lakes, N.J.) for 30 minutes at room temperature (˜22° C.). The samples were washed three times with TBST0.5 buffer (25 mM Tris, 150 mM NaCl, pH 7.2, with 0.5% TWEEN®-20). After washing, the samples were re-suspended in 900 μL TALON™ (Clontech, Mountain View, Calif.) buffer (50 mM sodium phosphate, pH 8.0, 300 mM sodium chloride, 0.01% TWEEN®-20). Approximately 0.2 mg of TALON™ beads (DYNABEADS® TALON™, Invitrogen, Carlsbad, Calif.; Catalog#101.01D) were washed twice with TALON™ buffer on the DYNAL® MPC™ magnet (Invitrogen) and added to each reaction in 100-μL TALON™ buffer.
(§2) The strength of binding of the magnetic beads to the various surfaces was evaluated by visualization of scanning electron microscope (SEM) images taken at 1000-fold magnification.

[3] = HC263-mediated binding of magnetic beads to surfaces, SEM score: wool; conditions: surface wool, 0.2 μM HC263
Experimental: as §1, §2

[4] = HC263-mediated binding of magnetic beads to surfaces, SEM score: cotton; conditions: surface cotton, 0.2 μM HC263
Experimental: as §1, §2

[5] = HC263-mediated binding of magnetic beads to surfaces, SEM score: SONTARA; conditions: surface SONTARA, 0.2 μM HC263
Experimental: as §1, §2

[6] = HC263-mediated binding of magnetic beads to surfaces, SEM score: cellulose; conditions: surface cellulose (filter paper), 0.2 μM HC263
Experimental: as §1, §2

Row | Molecule | Strength of binding (5 highest, 0 lowest) ([1]; Table 11, peptide 0.002 μM) | Strength of binding (5 highest, 0 lowest) ([1]; Table 11, peptide 0.02 μM) | Strength of binding (5 highest, 0 lowest) ([1]; Table 11, peptide 0.2 μM) | Strength of binding (5 highest, 0 lowest) ([1]; Table 9, peptide 0.002 μM, no SLES wash) | Strength of binding (5 highest, 0 lowest) [2] | Strength of binding (5 highest, 0 lowest) [3] | Strength of binding (5 highest, 0 lowest) [4] | Strength of binding (5 highest, 0 lowest) [5] | Strength of binding (5 highest, 0 lowest) [6]
1 | B1 | 2 | 5 | 5 |  |  |  |  |  | 
2 | B2 | 2 | 5 | 5 | 2 | 1 | 0 | 0 | 0 | 0
